Patent US20210062171A1, “NOVEL SIALIDASES AND USES THEREOF” (The Regents of the University of California, priority 2019, published 2021)
“Also recorded” adds a separate entry of the source.

B1: C22: GH33 exo-sialidase from compost soil metagenomic fosmid clone C22, SEQ ID NO. 8 (protein)
chain: MVIAWMAGVQCTAAALVDLGVTILDISGEPERQVIVDREPGQYLGHVSTVLLEDDKTILAVYPKGHGRGAIVLKRSEDGGRTWSGRLPVPASWATSKETPTIHRVVDARGRRRLLLWSGLYPARRALSDDDGRTWTELEPVGEWGGIVVMGFVEATRQPGHYVAMFHDDGRYFAAQPSTNRSMTLYLTRSSDGGVSWSSPVAVWSNSAVHLCEPGGIWSPDRRRLAVLLRENRRVNNSHIMFSDDEGHTWTTPVEMPLSRAGDRHTLRYTPDGRIVCVFRAVTPVGMRGRSFGQNEDVDTLGVGSPFEGDCVAWVGTWDDLVHNRPGQYYVRLLNNRKGWDTTYPGVEVLPDGTVVVTTYGHWNAGEPPYIRSVRFRLEELDRMAAKASQKP
modifications: Environmental sample
B2: sialidase26: Bin13 GH33 sialidase from mouse gut metagenome, SEQ ID NO. 4, PDB 6MRX (protein)
chain: MKKNLFLSIIFSFCVILQAFASDTVFVRETQIPVLIERQDNVLFMLRLNAKESHTLDEVVLNFGKDVNMSDIQSVKLYYSGTEARQNYGKNFFAPVSYISSHTPGKTLAANPSYSINKSQVNNPKRKVALKANQKLFPGINYFWISLQMKPDASLLDKVAAKIAAIKVDNKEALMHTVSPENIVHRVGVGVRHAGDDGSASFRIPGLVTTNKGTLLGVYDVRYNNSADLQEHVDIGLSRSVDGGKTWEKMRLPLAFGETGDLPAAQNGVGDPSILVDTKTNTVWVVAAWTHGMGNQRAWWSSYPGMDMNHTAQLVLSKSTDDGKTWSKPINITEQVKDPSWYFLLQGPGRGITMQDGTLVFPIQFIDSTRVPNAGIMYSKDRGETWKIHNYARTNTTEAQVAEVEPGVLMLNMRDNRGGSRAISTTKDLGKTWTEHSSSRKALQEPVCMASLISVKAKDNVLNKDILLFSNPNTVKGRHHITIKASLDGGVTWLPEHQVMLDEGEGWGYSCLTMIDKETIGILYESSVAHMTFQAVQLRDIIK
modifications: Environmental sample
notes: 4, PDB 6MRX
B3: sialidaseHz136: Sialidase from binHz19 of Hadza shotgun metagenome, SEQ ID NO. 6, PDB 6MNJ (protein)
chain: MMKRTFWLIALSLLSLTLSASDSLRIHNPQIPILLDRMDNVLFLIRVPDAVQGNVLESLTVEFGPDTDLNSIAELRLFYSGTEAVRRQGLRFSPVEYISAHNVWNTRSANPSYSVMQEQASKIGRKVVLHSRQPMVGGINYYWVSVRMNPDASLLTELRARVSEVVVNGKKIPVACDSREVVRRMGYGVRHAGDDHSMAYRIPGLVTTNSGSLIGTYDVRWNSSVDLQERIDIGVSRSTDKGQTWEPMRIAMSFADIDGLPSGQNGVGDPAVLVDEKTGTIWVMAAWTHGMGNGRAWTNSMPGMEPMETPQLMLARSDDDGRTWSEPINITKQVKDPSWCFLLQGPGRGITMRDGTLVFAIQFIDKDRMPHAGIIFSKDHGETWHIHNPARSNTTEAQVAEVEPGVLMLNMRDNRGGARAVMTTRDLGRTWTEHVSHRTTLREPVCMASLIAVPAEKNVLGKDLLLFSNPDTTDGRRDITIKASLDGGVTWPYSLLLDEGDSWGYSCLTMIDSQTVGILYESSVAHITFQAAKLKAIVK
modifications: Environmental sample
notes: 6, PDB 6MNJ
B4: C19: GH33 exo-sialidase from compost soil metagenomic fosmid clone C19, SEQ ID NO. 7 (protein)
chain: MKRTGWLLLLVSGPALCQPPRGYSIPLIDLAAEAWRQTVVDREPGQYLGHPTTVLLEDGRTVLAVYPKGHGRGAIVYKRSRDGGRTWSARLPVPENWATSQETPTIHRVVDPRGRKRLILFSGLYPIRMSVSEDDGETWTPLAPIGNFGGVVAMASVERLRDGRYMALFHDDGRFLRGGGKPDRFVVYKTLSGDGGLTWSEPVPILSHPQAHLCEPGLLRSPDGRRIAILLRENSRKFNSFVSFSDDEGETWSEPRELPGALTGDRHTAVYARDGRLFISFRDTTHESPTRGDWVAWVGRFGDIENGREGQYRVRLMKNHKDLDCCYPGVLRLPDDTILTTTYGHWTPGEPPYIVSIRLRLSELDRRAQGAGR
modifications: Environmental sample

Key:
Format in all cases: biochemical
[1] = Fluorogenic sialidase assay with 4MU-α-Neu5Ac; conditions: compost metagenomic fosmid clones in E. coli, fluorescence λex=365 nm, λem=445 nm
Procedure: (§1) Following the enzyme selection process, clones showing activity were tested subsequently and re-tested for their ability to cleave 4MU-α-Neu5Ac. […] The DNA sequence of cloned inserts from C19 and C22 each encoded a single bacterial sialidase gene.
The compost metagenomic library (theoretically encoding ˜215,000 environmental genes) was differentially screened with fluorogenic 2′-(4-methylumbelliferyl)-α-D-N-glycolylneuraminic acid (4MU-α-Neu5Gc) (Sussex Research, Ottawa, CA) and 2′-(4-methylumbelliferyl)-α-D-N-acetyineuraminic acid 4MU-α-Neu5Ac (Toronto Research Chemicals, Toronto, CA) substrates. In a primary screen, library clones were grown in 384-well plates containing 50 μL LB liquid cultures (10 g tryptone. 5 g yeast extract, 10 g NaCl, 1 g dextrose, 1 g MgCl2-6H2O, 2 mL of 2M NaOH per liter, containing chloramphenicol 12.5 μg/mL and 1× inducing solution (Lucigen Corporation)) overnight at 37° C. […] Fluorescence at λex=365 nm and λem=445 nm was read with a SpectraMax Plus 384 Microplate Reader (Molecular Devices, Sunnyvale, Calif.) at 6 h, 24 h and 48 h. Positive clones were defined as those showing fluorescence greater than 3 standard deviations above the mean background, and each was re-archived in a fresh 384-well plate in sterile 20% (v/v) glycerol. […]

[2] = Fluorogenic sialidase assay with 4MU-α-Neu5Gc; conditions: for Hydrolysis of 4MU-α-Neu5Gc: compost metagenomic fosmid clones in E. coli, fluorescence λex=365 nm, λem=445 nm; for Preference for Neu5Gc hydrolysis compared to known bacterial exo-sialidases: in vitro, 4MU-α-Neu5Gc versus 4MU-α-Neu5Ac, comparators Au, Cp, Mv, St, Vc sialidases
Text: To determine if Neu5Gc-specific sialidases are restricted to enteric bacteria, we utilized functional metagenomic screening to identify exo-sialidases with a Neu5Gc specificity in a terrestrial environment. A fosmid library containing ˜40 kb inserts of total environmental DNA isolated from soil from an organic composting facility was constructed in E. coli Lysates from 5,376 clones were screened for hydrolysis of 4MU-α-Neu5Gc. During environmental DNA extraction 100, environmental samples 102 are collected and environmental DNA 104 is extracted. DNA extraction is followed by metagenomics library production 110 where fosmid vectors 112 are ligated with environmental DNA to produce plasmids 114 that are transfected into E. coli cells 116. During functional screening 120, one clone 122 is present per well in a well plate and hits 124 are selected by a means known in the art. Following functional screening 120, hits 132 are sequenced during a sequencing step 130 using any method for sequencing known in the art. Gene prediction and database comparison 140 is used to identify enzyme candidates 142; the enzyme candidates are expressed and characterized 150 in plasmids 152, which are transfected into E. coli and expressed as enzymes 154 for further characterization and/or use.
as §1
The compost metagenomic library (theoretically encoding ˜215,000 environmental genes) was differentially screened with fluorogenic 2′-(4-methylumbelliferyl)-α-D-N-glycolylneuraminic acid (4MU-α-Neu5Gc) (Sussex Research, Ottawa, CA) and 2′-(4-methylumbelliferyl)-α-D-N-acetyineuraminic acid 4MU-α-Neu5Ac (Toronto Research Chemicals, Toronto, CA) substrates. In a primary screen, library clones were grown in 384-well plates containing 50 μL LB liquid cultures (10 g tryptone. 5 g yeast extract, 10 g NaCl, 1 g dextrose, 1 g MgCl2-6H2O, 2 mL of 2M NaOH per liter, containing chloramphenicol 12.5 μg/mL and 1× inducing solution (Lucigen Corporation)) overnight at 37° C. Fifty microliters of Y-per lysis buffer (Thermo Fischer Scientific, Waltham, Mass.) containing 40 μg/mL of 4MU-α-Neu5Gc was added to each well. The mixtures were incubated overnight at 37° C. in a static incubator. Fluorescence at λex=365 nm and λem=445 nm was read with a SpectraMax Plus 384 Microplate Reader (Molecular Devices, Sunnyvale, Calif.) at 6 h, 24 h and 48 h. Positive clones were defined as those showing fluorescence greater than 3 standard deviations above the mean background, and each was re-archived in a fresh 384-well plate in sterile 20% (v/v) glycerol. […]

[3] = Sialidase activity on food sources (Neu5Gc release); conditions: 2 μg enzyme, 2 h at 37° C., Tris-HCl pH 7; beef, pork, PSM chow
Text: Fecal shotgun metagenomes from the Hadza people (Table 4), a genetically distinct indigenous ethnic group that resides in remote Tanzania was reanalyzed. The Hadza are hunter-gatherers and change their diet periodically throughout the year according to food availability. In dry seasons, their diet is enriched in meat and tubers, whereas in wet seasons it consists largely of honey and berries. Raw reads from Hadza metagenomes were mapped to bin13. […] To evaluate the sialidases genes present in the Hadza microbiome, the combined metagenomes were co-assembled and 24 genome bins containing 51 sialidase genes were identified (FIG. 17, Table 5). The binHz19, whose closest relative was Alistipes sp., was equally abundant in microbiomes from both seasons (FIG. 2B, Table 5). […] This difference supports the notion that sialidaseHz136 is capable of metabolizing structurally diverse glycans, a concept that would be of benefit to an individual with seasonal variations in diet. To additionally determine if sialidase26 and sialidaseHz136 can release Neu5Gc from food sources directly, we test their activity on beef, pork, and PSM chow as substrate.
Beef (New York Steak) and pork (breakfast sausage) were purchased at Whole Foods Market and cut in small pieces using sterile blades. PSM chow was powdered using mortar and pestle. […]

[4] = In vitro sialidase activity assay on mixed WT and Cmah−/− mouse serum (DMB derivatization, HPLC); conditions: purified enzyme 0.5-10 μg; pH 6.5, 7.0 and 8.0; 1 hour at 37° C.
Procedure: Bin13 sialidases were tested for Neu5Gc release. Each of the five sialidases genes in bin13 were PCR amplified (FIG. 12) and heterologously expressed in vitro, purified, and assayed for its substrate preference. Sialidase activity measurements were performed using different enzyme concentrations (0.5-10 μg) at three different pH levels (6.5, 7.0, and 8) (FIGS. 3A, 13). […] Additionally, we tested in vivo sialidase activity in fresh fecal samples. Clarified fecal pellets from mice fed with PSM tend to preferentially release Neu5Gc compared to clarified fecal pellets from mice fed with Soy (FIG. 3D).
Sialidases purified as described above were quantified using SDS-PAGE image analysis with BSA references (Bio-Rad) and absorbance using the Nanophotometer P330 (Implen), with extinction coefficients calculated using ExPASy Translate. […] The samples were kept at −20° C. until derivatization and analyzed by HPLC as described below. […] The DMB-derivatized samples were analyzed on a Dionex Ultra3000 HPLC System using a Phenomenex Gemini 5μ C18 250×4.6-mm HPLC column at room temperature, eluted in isocratic mode with 85% water, 7% methanol, 8% acetonitrile. […]

Row | Molecule | Activity on 4MU-α-Neu5Ac [1] | Hydrolysis of 4MU-α-Neu5Gc [2] | Preference for Neu5Gc hydrolysis compared to known bacterial exo-sialidases [2] | Release of Neu5Gc from food [3] | Substrate preference, Neu5Gc versus Neu5Ac release [4]
1 | B1 | only minor activity | significant hydrolysis; also recorded: significant activity | marked preference for Neu5Gc hydrolysis |  | 
2 | B2 |  |  |  | pronounced sialidase activity by releasing Neu5Gc from all food tested | preference for Neu5Gc
3 | B3 |  |  |  | pronounced sialidase activity by releasing Neu5Gc from all food tested | preferential activity for Neu5Gc over Neu5Ac in all tested conditions
4 | B4 | only minor activity | significant hydrolysis; also recorded: significant activity | marked preference for Neu5Gc hydrolysis |  | 
